Target: T1, TprA (Pseudomonas aeruginosa PA14, UniProt A0A0H2ZFZ8 1-84)
Assay: EMSA
Details: protein: recombinant; tags: His-tag removed by TEV; chain copies: 2; label: 5'-Cy5 on strand 1; blunt

Binder | binding result
R3.3 (dsDNA) DNA 1: TACTGTCTGACCTGAGTTCAACAAAGCATTCTA DNA 2: TAGAATGCTTTGTTGAACTCAGGTCAGACAGTA | no binding
R3.2 (tprA-BS) (dsDNA) DNA 1: AGTATTTAAAGCTCAATTAGCACCCCGTACTGT DNA 2: ACAGTACGGGGTGCTAATTGAGCTTTAAATACT | binds
R3.4 (dsDNA) DNA 1: ATTCTAAAACGATTAGAACTTCTATTTTATCCA DNA 2: TGGATAAAATAGAAGTTCTAATCGTTTTAGAAT | no binding
R3.1 (dsDNA) DNA 1: AATTTAGCCCAATAGTATTTAAAGCTCAATTAGCAC DNA 2: GTGCTAATTGAGCTTTAAATACTATTGGGCTAAATT | no binding

Target: T1, TprA
Assay: EMSA; 1 uM TprA
Details: protein: recombinant; tags: His-tag removed by TEV; chain copies: 2; label: 5'-Cy5 on strand 1; blunt

Binder | binding result
R5 (dsDNA) DNA 1: CCTAGTCATCGAGAAATCCCCTCCCCTGTTGCCGAGTATTTCCTGCTGATGCGTGGCGGATGGCCTGCCACTGTGTGCCCCATCATCAAAGGGGGCCTCA DNA 2: TGAGGCCCCCTTTGATGATGGGGCACACAGTGGCAGGCCATCCGCCACGCATCAGCAGGAAATACTCGGCAACAGGGGAGGGGATTTCTCGATGACTAGG | no binding
R4 (dsDNA) DNA 1: TTTCTAACAACGATTCCCACCTGGCTCGCTTTAGGCGTAACATGAAAAACCTTCATCGCTCCTAATCCGTTTCCCTTACGCCTGCCTCGCTCACCCTCTG DNA 2: CAGAGGGTGAGCGAGGCAGGCGTAAGGGAAACGGATTAGGAGCGATGAAGGTTTTTCATGTTACGCCTAAAGCGAGCCAGGTGGGAATCGTTGTTAGAAA | no binding
R1 (dsDNA) DNA 1: TTGCAGGGGTTTCGGAGAAAAAACCTGTGACCCAGAACTCTTTTTCCGTATATTTTAAAGCGAAGTCTTCAACAAGCCTTACCGAGAAAGGAAACAGGAT DNA 2: ATCCTGTTTCCTTTCTCGGTAAGGCTTGTTGAAGACTTCGCTTTAAAATATACGGAAAAAGAGTTCTGGGTCACAGGTTTTTTCTCCGAAACCCCTGCAA | no binding
R2 (dsDNA) DNA 1: AGTACTGAATCCAGCCACTACCAAGGGGTTAACTGATGCCAGGCTTGGAAATACGGAGCCTTTCCAAGCGACTAAAACAAAGAAGAAAGCTCCCCAGAAA DNA 2: TTTCTGGGGAGCTTTCTTCTTTGTTTTAGTCGCTTGGAAAGGCTCCGTATTTCCAAGCCTGGCATCAGTTAACCCCTTGGTAGTGGCTGGATTCAGTACT | no binding
R3 (dsDNA) DNA 1: AATTTAGCCCAATAGTATTTAAAGCTCAATTAGCACCCCGTACTGTCTGACCTGAGTTCAACAAAGCATTCTAAAACGATTAGAACTTCTATTTTATCCA DNA 2: TGGATAAAATAGAAGTTCTAATCGTTTTAGAATGCTTTGTTGAACTCAGGTCAGACAGTACGGGGTGCTAATTGAGCTTTAAATACTATTGGGCTAAATT | binds

From publication PMC8565334, “The horizontal transfer of Pseudomonas aeruginosa PA14 ICE PAPI-1 is controlled by a transcriptional triad between TprA, NdpA2 and MvaT”
